The values below come from patent US20240075137A1 (COMPUGEN, published 2024).

Assay [1] deals with T1, human TIGIT ECD with C-terminal polyhistidine tag (human, UniProt Q495A1 22-141).
T1 construct: in-house or Sino Biological; also called hTIGIT-HIS; human TIGIT-HIS
T1 sequence: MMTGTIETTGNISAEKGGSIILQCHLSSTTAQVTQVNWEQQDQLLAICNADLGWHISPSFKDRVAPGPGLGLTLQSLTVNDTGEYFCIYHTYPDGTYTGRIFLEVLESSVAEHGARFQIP
Put plainly: SPR (ProteOn), Human TIGIT-His.

Assay [2] has as its target T2, cyno TIGIT on cells (cynomolgus macaque).
T2 construct: whole, on cells; also called Expi293 cyno TIGIT over-expressing cells
As to the kind of experiment: FACS titration of AF647-labelled mAb on cyno effector memory CD8+ T cells, Cyno Donor 3; isotype gMFI subtracted.

Assay [3] concerns the target T3, human TIGIT on cells (human, UniProt Q495A1 22-141).
T3 construct: also called Expi293 human TIGIT over-expressing cells
T3 sequence: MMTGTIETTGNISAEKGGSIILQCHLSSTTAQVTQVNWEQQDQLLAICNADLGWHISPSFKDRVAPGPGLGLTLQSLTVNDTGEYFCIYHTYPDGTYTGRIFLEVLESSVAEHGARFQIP
Put plainly: FACS titration of AF647-labelled mAb on human effector memory CD8+ T cells, Donor 321.

In the next assay the target is T4, Mouse TIGIT-His (mouse, UniProt P86176).
T4 construct: also called mouse TIGIT monomer (prepared in-house)
T4 sequence (soluble monomer with His tag, looked up): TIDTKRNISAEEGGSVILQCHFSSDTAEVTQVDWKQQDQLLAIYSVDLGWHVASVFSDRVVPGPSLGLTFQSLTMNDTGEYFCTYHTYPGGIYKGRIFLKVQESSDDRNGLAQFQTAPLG
As to the kind of experiment: SPR (ProteOn), Mouse TIGIT-His.

Assay [4] addresses T3, human TIGIT on cells. Put plainly: FACS blocking of human PVR-m2aFc binding to human TIGIT OE Expi293 cells; binding site concentration; n=2.
The target of assay [5] is T1, human TIGIT ECD with C-terminal …. As to the kind of experiment: KinExA equilibrium, His-tagged human TIGIT, n = 1.
Experimental: (§1) KinExA equilibrium experiments were performed using a KinExA 3200 instrument (Sapidyne Instruments, Boise, ID, USA) at 22° C. Recombinant His-tagged human TIGIT was obtained from Sino Biologicals (Beijing, China) and reconstituted into 1×PBS. All antigen and antibody samples for KinExA analyses were prepared in degassed PBST buffer (PBS with 0.05% tween 20) with 100 ug/mL filtered BSA and 0.02% sodium azide. […] For each KinExA experiment, ˜20 lag of human TIGIT was diluted into 1 mL of 50 mM sodium carbonate, pH 9.2 which was added directly to 50 mg of azlactone beads (Ultralink Support, Thermo Scientific, Rockford, IL, USA) and rocked overnight at 4° C. After rocking, the beads were rinsed once with 1 M Tris buffer, pH 8.5, containing 10 mg/mL BSA and rocked for one hour at room temperature in the same buffer. Coupled beads were added to the bead reservoir in the KinExA instrument and diluted to ˜30 mL with 1×HBS-N (0.01 M Hepes, 0.15M NaCl, GE Healthcare) containing 0.02% sodium azide which was also the running buffer for the KinExA instrument. All antigen-coupled beads were used immediately after preparation.
(§2) The volume flowed through the bead pack for each equilibrated sample for all experiments ranged from 4 mL to 11 mL at a flow rate of 0.25 mL/min.
Assay [6] addresses T3, human TIGIT on cells. As to the kind of experiment: FACS titration of AF647-labelled mAb on human effector memory CD8+ T cells, Donor 334.
Assay [7] concerns the target T3, human TIGIT on cells. Put plainly: FACS titration on human TIGIT OE Expi293 cells, binding site concentration; ± 95% CI; 'Fit: Good/Excellent'.
Experimental: AF647-labeled goat anti-human F(ab′) (Jackson Immunoresearch) was added to the cells to detect binding of anti-TIGIT antibodies.
In assay [8] the target is T1, human TIGIT ECD with C-terminal …. Put plainly: KinExA equilibrium, His-tagged human TIGIT, n = 2. In general terms: Kinetic exclusion samples the free partner from a solution-phase mixture.
Experimental: as §1, §2
The target in assay [9] is T3, human TIGIT on cells. Put plainly: FACS blocking of human PVR-m2aFc binding to human TIGIT OE Expi293 cells; binding site concentration; n=1.
For assay [10], the target named is T2, cyno TIGIT on cells. As to the kind of experiment: FACS titration of AF647-labelled mAb on cyno effector memory CD8+ T cells, Cyno Donor 1; isotype gMFI subtracted.
In assay [11] the target is T2, cyno TIGIT on cells. Put plainly: FACS titration on cyno TIGIT OE Expi293 cells, binding site concentration; ± 95% CI; 'Fit: Good'.
Experimental: AF647-labeled goat anti-human F(ab′) (Jackson Immunoresearch) was added to the cells to detect binding of anti-TIGIT antibodies. The gMFI of the anti-TIGIT antibodies bound to the cyno TIGIT over-expressing Expi293 cells (black line), and the parental Expi293 cells (grey line) are shown.
Assay [12] has as its target T3, human TIGIT on cells. As to the kind of experiment: FACS titration of AF647-labelled mAb on human effector memory CD8+ T cells, Donor 322.
For the next assay, the target named is T5, Cyno TIGIT-His.
T5 construct: also called cyno TIGIT monomer (prepared in-house); C-terminal HIS-tagged cyno TIGIT ECD recombinant protein
As to the kind of experiment: SPR (ProteOn), Cyno TIGIT-His.

A further assay has as its target T6, mPVRL2 HIS (mouse, UniProt P32507 32-351, limits assumed).
T6 construct: also called mPVRL2 protein; Soluble PVRL2 HIS protein
T6 sequence (looked up): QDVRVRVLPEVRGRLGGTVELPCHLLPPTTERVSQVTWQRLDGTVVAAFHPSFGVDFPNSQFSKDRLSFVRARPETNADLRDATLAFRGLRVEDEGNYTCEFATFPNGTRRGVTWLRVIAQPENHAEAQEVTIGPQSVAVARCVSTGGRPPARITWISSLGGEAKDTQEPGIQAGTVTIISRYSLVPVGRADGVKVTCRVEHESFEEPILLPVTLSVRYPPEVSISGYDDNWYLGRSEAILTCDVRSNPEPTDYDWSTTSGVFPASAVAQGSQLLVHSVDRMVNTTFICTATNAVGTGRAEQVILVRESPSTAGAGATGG
Put plainly: ELISA: soluble PVRL2 HIS titrated on plates coated with mDNAM1-mFc. (In an ELISA, binding on a coated surface is turned into a signal by an enzyme label.)

Assay [13] deals with T7, PVRIG Fc (UniProt Q6DKI7 41-171, limits assumed, biotinylated (Example 5)).
T7 construct: also called biotinylated PVRIG Fc protein; PVRIG-Fc-fusion protein
T7 sequence (looked up): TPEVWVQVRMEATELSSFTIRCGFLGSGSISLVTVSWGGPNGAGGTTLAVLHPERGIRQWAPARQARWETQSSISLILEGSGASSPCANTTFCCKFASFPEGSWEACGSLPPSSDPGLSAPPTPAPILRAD
As to the kind of experiment: FACS competition: biotinylated PVRIG Fc (33 nM) binding to HEK cells with endogenous PVRL2.
Experimental: (§3) Cells were washed twice in PBS for acquisition using a FACS Canto II. Data was analyzed using FlowJo, Excel (Microsoft), and Prism.

Assay [14] has as its target T8, human PVRIG on cells (human, UniProt Q6DKI7 1-326).
T8 construct: whole, on cells; over-expressed on HEK cells or endogenous on Jurkat and CD8 T cells; also called hPVRIG; HEK hPVRIG cells
T8 sequence (looked up): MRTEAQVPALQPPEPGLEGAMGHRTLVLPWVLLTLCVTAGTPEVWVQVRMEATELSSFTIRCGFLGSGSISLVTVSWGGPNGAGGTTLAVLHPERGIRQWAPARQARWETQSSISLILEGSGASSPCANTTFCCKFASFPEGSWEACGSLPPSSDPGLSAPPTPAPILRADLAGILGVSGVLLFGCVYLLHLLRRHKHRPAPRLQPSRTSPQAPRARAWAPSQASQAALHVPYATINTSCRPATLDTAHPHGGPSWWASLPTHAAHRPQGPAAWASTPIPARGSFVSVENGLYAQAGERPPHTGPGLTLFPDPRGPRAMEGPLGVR
Put plainly: FACS KD, cell type 'Jurkat' (table beside the curve, column 'FACS KD (nM)').

For assay [15], the target named is T7, PVRIG Fc. As to the kind of experiment: FACS blocking assay: binding of PVRIG Fc to HEK cells that endogenously express PVRL2, with the antibody titrated.
Experimental: as §3
Assay [16] has as its target T8, human PVRIG on cells. Put plainly: flow cytometry titration, HEK hPVRIG cells. Background: In flow cytometry, cells or beads pass a laser one at a time.
Experimental: These cells were cultured in DMEM (Gibco)+10% fetal calf serum (Gibco)+glutamax (Gibco). For the HEK hPVRIG over-expressing cells, 0.5 ug/ml puromycin (Gibco) was also added to the media for positive selection. For FACS analysis, all cell lines were harvested in log phase growth and 50,000-100,000 cells per well were seeded in 96 well plates. […] The titration series was conducted as 3 fold serial dilutions. […] Data was acquired using a FACS Canto II (BD Biosciences), FACS LSR Fortessa X-20 (BD Biosciences), or IntelliCyt (IntelliCyt Corporation) and analyzed using FlowJo (Treestar) and Prism (Graphpad) software.
Assay [17] deals with T8, human PVRIG on cells. Put plainly: FACS on Jurkat cells pre-incubated with CHA.7.538.1.2 (unconjugated).
Text: (§4) Data was acquired using a FACS Canto II and analysed using FlowJo, Excel, and Prism.
In assay [18] the target is T9, cynomolgus PVRIG on cells (cynomolgus, UniProt A0A2K5WVV8 41-322).
T9 construct: whole, on cells; also called cPVRIG; expi cPVRIG cells
T9 sequence: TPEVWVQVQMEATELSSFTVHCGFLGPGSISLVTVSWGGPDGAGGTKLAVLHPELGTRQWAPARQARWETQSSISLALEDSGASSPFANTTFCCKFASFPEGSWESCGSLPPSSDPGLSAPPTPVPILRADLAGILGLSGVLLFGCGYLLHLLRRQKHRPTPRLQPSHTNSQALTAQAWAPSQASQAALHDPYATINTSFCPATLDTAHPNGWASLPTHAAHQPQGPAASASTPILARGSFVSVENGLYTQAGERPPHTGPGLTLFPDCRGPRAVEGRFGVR
As to the kind of experiment: FACS KD, cell type 'HEK293 cPVRIG' (table beside the curve, column 'FACS KD (nM)').

The target of assay [19] is T8, human PVRIG on cells. As to the kind of experiment: FACS competition: PVRL2 mFc binding to HEK hPVRIG cells.
Experimental: Cells were washed twice in PBS for acquisition using a FACS Canto II. Data was analyzed using FlowJo, Excel and Prism.
In assay [20] the target is T8, human PVRIG on cells. Put plainly: FACS on Jurkat cells pre-incubated with Isotype (unconjugated).
Text: as §4
Assay [21] addresses T9, cynomolgus PVRIG on cells. As to the kind of experiment: flow cytometry titration, expi cPVRIG cells.
Experimental: These cells were cultured in DMEM+10% fetal calf serum+glutamax. expi cPVRIG transient over-expressing cells were generated by electroporating cPVRIG DNA into parental expi cells using the Neon transfection system. For FACS analysis, expi cPVRIG cells were used between 1-3 days-post transfection. Parental expi cells were harvested from log growth phase. 50,000-100,000 cells of per well of each type were seeded in 96 well plates. […] The titration series were conducted as a 3-fold dilution series. […] Data was acquired using a FACS Canto II or IntelliCyte and analyzed using FlowJo and Prism software.
For assay [22], the target named is T8, human PVRIG on cells. Put plainly: FACS on Jurkat cells pre-incubated with CHA.7.518.1 (unconjugated).
Text: as §4
The target of assay [23] is T8, human PVRIG on cells. Put plainly: FACS KD, cell type 'HEK293 hPVRIG' (table beside the curve, column 'FACS KD (nM)').

T5 sequence (ECD with C-terminal His tag, as listed by the source): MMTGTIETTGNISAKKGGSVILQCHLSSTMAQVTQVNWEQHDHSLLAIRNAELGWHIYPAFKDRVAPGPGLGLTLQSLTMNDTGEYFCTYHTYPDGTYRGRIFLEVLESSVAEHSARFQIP

B1: CPA.9.086.H4(S241P) (antibody, human IgG4 S228P, lambda, V domains shown)
VH: EVQLVETGGGLIQPGRSLRLSCAASGFTFSSYAMHWVRQAPGKGLEWVAVISYAGEVKYYADSVKGRFTISRDNSKNTLYLQMNSLRAEDTAVYYCARDPLPLHYYGMDVWGQGTTVTVSS
VL: QSALTQPRSASGNPGQRVTISCSGSSSNMGRRPVNWYQQIPGTAPKLLIYSQNQRPSGVPDRFSGSQSGTSASLTISGLQSEDEAEYFCAVWDDIGRVLQLGGGTQLAVLG
As to B1, the Kd in [1] turned out to be 2.3 pM; in the assay with cyno TIGIT on cells [2], 0.98 nM; with human TIGIT on cells [3], 0.09 nM; with Mouse TIGIT-His, 0.663 nM; in [5] it was 0.553 pM; in the assay with human TIGIT on cells [6], 0.13 nM. In addition, the dissociation constant (Kd) with human TIGIT on cells [7] worked out at 0.35 nM; in assay [8], 0.665 pM; with cyno TIGIT on cells [10], 0.43 nM; in the assay with cyno TIGIT on cells [11], 0.3 nM; with human TIGIT on cells [12] it was 0.11 nM. Further, the IC50 stood at 0.18 nM with human TIGIT on cells [4] and 0.36 nM in the assay with human TIGIT on cells [9]. The binding result with Cyno TIGIT-His is on record as “binds”.

B2: DNAM1 Fc (Fc fusion, mouse (prefix m in FIG. 95D), UniProt Q8K4F0 19-254, looked up)
fusion chain: EETLWDTTVRLSETMTLECVYPLTHNLTQVEWTKNTGTKTVSIAVYNPNHNMHIESNYLHRVHFLNSTVGFRNMSLSFYNASEADIGIYSCLFHAFPNGPWEKKIKVVWSDSFEIAAPSDSYLSAEPGQDVTLTCQLPRTWPVQQVIWEKVQPHQVDILASCNLSQETRYTSKYLRQTRSNCSQGSMKSILIIPNAMAADSGLYRCRSEAITGKNKSFVIRLIITDGGTNKHFILP
notes: receptor part of an Fc fusion; also called mDNAM1-mFc
As for B2, in the assay with mPVRL2 HIS, the binding result was “binds”.

B3: CHA.7.518.1.H4(S241P) (antibody, human IgG4 S228P, kappa, V domains shown)
VH: QVQLVQSGAEVKKPGASVKVSCKASGYTFTDYNINWVRQAPGQGLEWMGYIYPYIGGSGYAQKFQGRVTMTRDTSTSTVYMELSSLRSEDTAVYYCAREDKTARNAMDYWGQGTLVTVSS
VL: DIQMTQSPSSLSASVGDRVTITCRVSENIYSNLAWYQQKPGKAPKLLIYEATNLAEGVPSRFSGSGSGTDFTLTISSLQPEDFATYYCQHFWGTPYTFGQGTKLEIKR
notes: humanized, human IgG4 with S241P; also called anti-PVRIG
With B3, the IC50 in the assay with PVRIG Fc [13] is 15 nM; with human PVRIG on cells [19] it was 1.8 nM. The Kd with human PVRIG on cells [14] came out at 0.15 nM; in the assay with human PVRIG on cells [16], 0.29 nM; in assay [18], 0.248 nM; in [21] it was 0.24 nM; in the assay with human PVRIG on cells [23], 0.298 nM. Besides, the “IC50 (read off the curve)” value with PVRIG Fc [15] was ~6 nM. For the same molecule, the entries for the “% binding relative to maximum signal” value in the assay with human PVRIG on cells [17], with human PVRIG on cells [20] and with human PVRIG on cells [22] were 7%, 100% and 14%, respectively.

What is called Kd is the free concentration of one partner at which half of the binding sites on the other are occupied at equilibrium, for simple one-to-one binding. A low value points to a tighter complex. By IC50 is commonly meant the concentration at which inhibition is half-maximal. A high value points to lower potency.
